Changes are numbered by the printed parent chain. Names and notes keep the numbering of the source.
Key:
[1] = molecular target: T1, E. coli PheT subunit of phenylalanyl-tRNA synthetase (E. coli, UniProt P07395 1-795); test: IMAC pull-down of cell-free produced PheRS(A294G)
T1 construct: also called PheT domain
T1 sequence: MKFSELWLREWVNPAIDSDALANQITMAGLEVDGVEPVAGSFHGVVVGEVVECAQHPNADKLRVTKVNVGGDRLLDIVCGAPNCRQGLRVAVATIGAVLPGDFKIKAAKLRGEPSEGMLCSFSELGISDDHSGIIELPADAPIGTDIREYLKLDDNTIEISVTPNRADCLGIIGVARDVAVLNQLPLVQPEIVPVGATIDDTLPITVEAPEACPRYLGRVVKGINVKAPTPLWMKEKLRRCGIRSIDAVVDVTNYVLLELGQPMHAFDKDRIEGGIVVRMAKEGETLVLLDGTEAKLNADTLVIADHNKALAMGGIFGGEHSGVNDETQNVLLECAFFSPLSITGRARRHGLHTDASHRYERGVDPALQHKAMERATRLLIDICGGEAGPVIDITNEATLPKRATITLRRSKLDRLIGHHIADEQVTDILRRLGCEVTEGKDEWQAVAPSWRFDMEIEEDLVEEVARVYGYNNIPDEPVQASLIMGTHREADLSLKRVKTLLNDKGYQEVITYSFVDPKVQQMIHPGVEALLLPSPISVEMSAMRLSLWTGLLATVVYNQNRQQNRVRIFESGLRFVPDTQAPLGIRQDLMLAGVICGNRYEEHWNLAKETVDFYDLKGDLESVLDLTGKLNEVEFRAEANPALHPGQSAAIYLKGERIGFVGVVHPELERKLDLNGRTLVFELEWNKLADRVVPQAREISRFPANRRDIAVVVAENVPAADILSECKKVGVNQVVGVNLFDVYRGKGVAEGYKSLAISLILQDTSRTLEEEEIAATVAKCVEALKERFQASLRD

[2] = molecular target: T2, PheT KV (E. coli, UniProt P07395 1-795); test: IMAC co-purification after cell-free co-synthesis of PheS(A294G) and PheT variant
T2 construct: also called PheT R794K A15V
T2 sequence: T1 sequence with A15V, R794K

[3] = molecular target: T3, PheT AP (E. coli, UniProt P07395 1-795); test: as above
T3 construct: also called PheT R794A A791P
T3 sequence: T1 sequence with A791P, R794A

[4] = molecular target: T4, PheT K (E. coli, UniProt P07395 1-795); test: as above
T4 construct: also called PheT R794K
T4 sequence: T1 sequence with R794K

[5] = molecular target: T5, PheT MP (E. coli, UniProt P07395 1-795); test: as above
T5 construct: also called PheT R794M R788P
T5 sequence: T1 sequence with R788P, R794M

Measured: binding result

B1: 6X His-tagged E. coli PheS(A294G) subunit of phenylalanyl-tRNA synthetase (enzyme)
chain: MSHLAELVASAKAAISQASDVAALDNVRVEYLGKKGHLTLQMTTLRELPPEERPAAGAVINEAKEQVQQALNARKAELESAALNARLAAETIDVSLPGRRIENGGLHPVTRTIDRIESFFGELGFTVATGPEIEDDYHNFDALNIPGHHPARADHDTFWFDTTRLLRTQTSGVQIRTMKAQQPPIRIIAPGRVYRNDYDQTHTPMFHQMEGLIVDTNISFTNLKGTLHDFLRNFFEEDLQIRFRPSYFPFTEPSAEVDVMGKNGKWLEVLGCGMVHPNVLRNVGIDPEVYSGFGFGMGMERLTMLRYGVTDLRSFFENDLRFLKQFK
notes: also called 6XHisPheS(A294G); PheS(A294G) domain
binds: [1] | [2] | [3] | [4] | [5]

Source: US20100184134A1 (SUTRO BIOPHARMA, published 2010)
